The values that follow come from FireProtDB (doi:10.1021/bi00118a013).

B1: Guanyl-specific ribonuclease T1, P00651 (parent)
chain: MMYSKLLTLTTLLLPTALALPSLVERACDYTCGSNCYSSSDVSTAQAAGYQLHEDGETVGSNSYPHKYNNYEGFDFSVSSPYYEWPILSSGDVYSGGSPGADRVVFNENNQLAGVITHTGASGNNFVECT

The variants in the data set derive from B1. The settings on record: Aspergillus oryzae (strain ATCC 42149 / RIB 40), pH 7, Fluorescence, MOPS 30 mM, reversible: yes, structure 1RN1, whole UniProt chain shown.

Consider S90A, for which, where the note is “25 °C, Urea”, the “ddG of mutation (higher = less stable)” value worked out at 1.44 kcal/mol, the denaturant m value was 1.38 kcal/mol/M and the “denaturant midpoint (higher = more stable)” value (from here on “denaturant midpoint”) was found to be 4.11 M. Besides, for the setting “50.9 °C, Thermal”, the “ddG of mutation (higher = less stable)” value was determined as 1.56 kcal/mol.
For the variant Y94F, for the setting “25 °C, Urea”, the “ddG of mutation (higher = less stable)” value was 1.36 kcal/mol, the denaturant m value was 1.32 kcal/mol/M and the “denaturant midpoint” value was found to be 4.17 M. Further, the “ddG of mutation (higher = less stable)” value (50.9 °C, Thermal) is 1.35 kcal/mol. In addition, where the note is “Thermal”, the Tm (commonly the temperature at the midpoint of the melting transition) was found to be 46.9 °C; the “change of melting temperature, mutant - wild type (higher = more stable)” value (from here on “change of melting temperature, mutant”) is -4 °C; the “unfolding enthalpy (van 't Hoff)” value was found to be 89 kcal/mol.
As for S43A, the “ddG of mutation (higher = less stable)” value (50.9 °C, Thermal) was -0.57 kcal/mol. Moreover, for the setting “Thermal”, the Tm came to 52.6 °C; the “change of melting temperature, mutant” value worked out at 1.7 °C; the “unfolding enthalpy (van 't Hoff)” value is 109 kcal/mol.
As to N70A, under “25 °C, Urea”, the “ddG of mutation (higher = less stable)” value stood at 2.08 kcal/mol, the denaturant m value was found to be 1.3 kcal/mol/M and the “denaturant midpoint” value is 3.59 M.
With N107A, under “25 °C, Urea”, the “ddG of mutation (higher = less stable)” value stood at 2.87 kcal/mol, the denaturant m value is 1.44 kcal/mol/M and the “denaturant midpoint” value turned out to be 2.92 M. For the same variant, for the setting “50.9 °C, Thermal”, the “ddG of mutation (higher = less stable)” value was determined as 2.91 kcal/mol. For the same variant, where the note is “Thermal”, the Tm worked out at 42.3 °C; the “change of melting temperature, mutant” value is -8.6 °C; the “unfolding enthalpy (van 't Hoff)” value came out at 91 kcal/mol.
For N62A, where the note is “25 °C, Urea”, the “ddG of mutation (higher = less stable)” value was -0.03 kcal/mol, the denaturant m value came to 1.31 kcal/mol/M and the “denaturant midpoint” value was 5.31 M. Besides, the “ddG of mutation (higher = less stable)” value (50.9 °C, Thermal) came out at 0 kcal/mol. In addition, where the note is “Thermal”, the Tm amounted to 50.9 °C; the “change of melting temperature, mutant” value was determined as 0 °C; the “unfolding enthalpy (van 't Hoff)” value stood at 111 kcal/mol.
On to Y37F, for which, under “25 °C, Urea”, the “ddG of mutation (higher = less stable)” value worked out at 2.11 kcal/mol, the denaturant m value was found to be 1.27 kcal/mol/M and the “denaturant midpoint” value is 3.56 M. For the setting “50.9 °C, Thermal”, the “ddG of mutation (higher = less stable)” value was 2.03 kcal/mol. Moreover, under “Thermal”, the Tm amounted to 44.9 °C; the “change of melting temperature, mutant” value was -6 °C; the “unfolding enthalpy (van 't Hoff)” value came to 101 kcal/mol.
Regarding N35A, for the setting “25 °C, Urea”, the “ddG of mutation (higher = less stable)” value came to 0.9 kcal/mol, the denaturant m value stood at 1.28 kcal/mol/M and the “denaturant midpoint” value amounted to 4.56 M. The “ddG of mutation (higher = less stable)” value (50.9 °C, Thermal) came to 0.71 kcal/mol. Under “Thermal”, the Tm stood at 48.8 °C; the “change of melting temperature, mutant” value is -2.1 °C; the “unfolding enthalpy (van 't Hoff)” value amounted to 101 kcal/mol.
Take Y83F: for the setting “25 °C, Urea”, the “ddG of mutation (higher = less stable)” value came out at 0.5 kcal/mol, the denaturant m value came out at 1.29 kcal/mol/M and the “denaturant midpoint” value amounted to 4.88 M. For the setting “50.9 °C, Thermal”, the “ddG of mutation (higher = less stable)” value is 0.44 kcal/mol.
As to S38A, for the setting “25 °C, Urea”, the “ddG of mutation (higher = less stable)” value is 1.23 kcal/mol, the denaturant m value worked out at 1.28 kcal/mol/M and the “denaturant midpoint” value is 4.29 M. The “ddG of mutation (higher = less stable)” value (50.9 °C, Thermal) was 1.08 kcal/mol. Further, for the setting “Thermal”, the midpoint of thermal melting (Tm) was 47.7 °C; the “change of melting temperature, mutant” value is -3.2 °C; the “unfolding enthalpy (van 't Hoff)” value turned out to be 99 kcal/mol.
Turning to Y82F, for the setting “25 °C, Urea”, the “ddG of mutation (higher = less stable)” value is 0.78 kcal/mol, the denaturant m value is 1.26 kcal/mol/M and the “denaturant midpoint” value was 4.65 M. The “ddG of mutation (higher = less stable)” value (50.9 °C, Thermal) is 0.71 kcal/mol. In addition, for the setting “Thermal”, the Tm was determined as 48.8 °C; the “change of melting temperature, mutant” value was -2.1 °C; the “unfolding enthalpy (van 't Hoff)” value came out at 99 kcal/mol.
Regarding Y68F, where the note is “25 °C, Urea”, the “ddG of mutation (higher = less stable)” value is -1.14 kcal/mol, the denaturant m value came out at 1.17 kcal/mol/M and the “denaturant midpoint” value worked out at 6.24 M. For the same variant, where the note is “50.9 °C, Thermal”, the “ddG of mutation (higher = less stable)” value was -1.15 kcal/mol. Besides, for the setting “Thermal”, the Tm came to 54.3 °C; the “change of melting temperature, mutant” value amounted to 3.4 °C; the “unfolding enthalpy (van 't Hoff)” value stood at 106 kcal/mol.
